# Measurements: patent US20250002599A1 (NOVAROCK BIOTHERAPEUTICS, published 2025)
# Like-named read-outs stand apart in the source and are kept apart here.
# Assays:
# [1] = molecular target: T1, human CD137 expressed on the cell surface of HEK293T cells (human, UniProt Q07011 24-255); assay: immunofluorescence imaging on HEK293T cells expressing human CD137
# T1 construct: Stably or transiently transfected HEK293T cells; also on HEK293T and Jurkat T NFκB reporter cells; also called human CD137 (WT); 4-1BB
# [2] = molecular target: T2, cynomolgus CD137 expressed on the cell surface of HEK293T cells (cynomolgus, UniProt Q07011 24-255 (human entry)); assay: immunofluorescence imaging on HEK293T cells expressing cynomolgus CD137
# T2 construct: also called cyno CD137
# T2 chain: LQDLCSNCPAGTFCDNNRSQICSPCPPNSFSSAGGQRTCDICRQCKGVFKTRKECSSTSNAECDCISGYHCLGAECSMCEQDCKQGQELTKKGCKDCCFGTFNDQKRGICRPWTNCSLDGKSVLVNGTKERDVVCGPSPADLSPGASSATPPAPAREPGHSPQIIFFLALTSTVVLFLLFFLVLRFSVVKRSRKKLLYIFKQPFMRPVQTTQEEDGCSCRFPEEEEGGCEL
# [3] = molecular target: T1, human CD137 expressed on the cell …; assay: immunofluorescence imaging binding assay on human CD137-expressing HEK293T cells
# [4] = molecular target: T3, mouse CD137 expressed on the cell surface of HEK293T cells (mouse, UniProt P20334 24-256); assay: immunofluorescence imaging binding assay on mouse CD137-expressing HEK293T cells
# T3 construct: whole, on cells; also called murine CD137; mouse 4-1BB
# T3 sequence (P20334 24-256): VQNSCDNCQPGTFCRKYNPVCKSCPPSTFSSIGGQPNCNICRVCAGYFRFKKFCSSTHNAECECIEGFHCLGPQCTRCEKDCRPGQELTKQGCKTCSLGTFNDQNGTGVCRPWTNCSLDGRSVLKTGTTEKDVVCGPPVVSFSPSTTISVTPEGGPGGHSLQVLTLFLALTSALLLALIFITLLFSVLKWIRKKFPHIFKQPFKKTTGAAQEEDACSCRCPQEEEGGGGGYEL
# [5] = molecular target: T4, human PD-L1 expressed on the cell surface (HEK293T-PD-L1 cells; Promega artificial APC CHO-K1 cells) (human, UniProt Q9NZQ7 19-290); assay: immunofluorescence imaging on HEK293T-PD-L1 cells
# T4 construct: also called PD-L1 expressing HEK293T; human PD-L1 on the cell surface
# T4 sequence (Q9NZQ7 19-290 limits assumed): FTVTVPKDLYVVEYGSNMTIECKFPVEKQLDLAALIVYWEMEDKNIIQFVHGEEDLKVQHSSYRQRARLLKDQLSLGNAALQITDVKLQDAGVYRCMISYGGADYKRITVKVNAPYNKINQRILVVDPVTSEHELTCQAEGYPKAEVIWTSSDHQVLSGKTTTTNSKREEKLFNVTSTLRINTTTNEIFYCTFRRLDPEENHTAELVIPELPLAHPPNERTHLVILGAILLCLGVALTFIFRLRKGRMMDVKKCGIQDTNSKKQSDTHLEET
# [6] = molecular target: T5, human recombinant PD-L1 protein (Acro Biosystems, cat #: PD1-H5229) (human, UniProt Q9NZQ7 19-238); assay: SPR (Biacore3000), antibody captured by anti-human IgG on CM5, PD-L1 as analyte, 1:1 binding with mass transfer
# T5 construct: Bought protein; also called human PD-L1; recombinant human PD-L1
# T5 sequence (Q9NZQ7 19-238 limits assumed): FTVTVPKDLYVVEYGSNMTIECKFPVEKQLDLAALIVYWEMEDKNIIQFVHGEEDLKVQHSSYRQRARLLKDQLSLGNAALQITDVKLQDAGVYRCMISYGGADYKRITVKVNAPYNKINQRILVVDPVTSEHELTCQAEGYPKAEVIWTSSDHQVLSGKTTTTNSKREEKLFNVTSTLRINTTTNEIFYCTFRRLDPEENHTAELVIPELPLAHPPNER
# [7] = molecular target: T6, cynomolgus PD-L1 protein (Acro Biosystems, cat #: PD1-C52H4) (cynomolgus, UniProt Q9NZQ7 19-238 (human entry)); assay: ELISA, PD-L1 protein coated on the plate, OD 405
# T6 construct: Bought protein; also called cyno PD-L1
# T6 sequence (Q9NZQ7 other isoform, or with tags, fused parts or gaps limits assumed): as the sequence (Q9NZQ7 19-238 limits assumed) above, with A33T, A34S, S62N, R68Q, Q82R, F173L, T185A, T192I, H215L counted along it
# [8] = molecular target: T7, mouse PD-L1 protein (Acro Biosystems, cat #: PD1-M5220) (mouse, UniProt Q9EP73 19-238); assay: ELISA, PD-L1 protein coated on the plate, OD 405
# T7 construct: Bought protein; also called murine PD-L1
# T7 sequence (Q9EP73 19-238 limits assumed): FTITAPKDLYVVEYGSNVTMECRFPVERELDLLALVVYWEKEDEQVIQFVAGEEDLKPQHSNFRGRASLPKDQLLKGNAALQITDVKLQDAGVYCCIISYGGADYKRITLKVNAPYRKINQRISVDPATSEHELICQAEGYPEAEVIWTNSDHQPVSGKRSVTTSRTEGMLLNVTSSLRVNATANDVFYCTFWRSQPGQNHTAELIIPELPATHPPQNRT
# [9] = molecular target: T5, human recombinant PD-L1 protein (Acro …); assay: ELISA, PD-L1 protein coated on the plate, OD 405
# [10] = molecular target: T4, human PD-L1 expressed on the cell …; assay: cell-based or functional assay
# [11] = molecular target: T3, mouse CD137 expressed on the cell …; assay: immunofluorescence imaging binding assay on mouse CD137-expressing HEK293T cells; remark: listed apart in the source
# [12] = molecular target: T8, human CD137 (Sino Biological, cat #10041-H08H) (human, UniProt Q07011 24-186); assay: SPR (Biacore3000), antibody captured by anti-human IgG on CM5, CD137 as analyte, 1:1 binding with mass transfer
# T8 construct: Bought protein used as the analyte in SPR; also called CD137 antigen in Biacore
# T8 sequence (Q07011 24-186 limits assumed): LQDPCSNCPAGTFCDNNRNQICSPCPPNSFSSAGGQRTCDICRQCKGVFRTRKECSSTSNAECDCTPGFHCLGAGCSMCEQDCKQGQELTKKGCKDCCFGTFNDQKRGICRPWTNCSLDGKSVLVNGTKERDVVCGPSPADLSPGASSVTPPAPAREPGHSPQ
# [13] = molecular target: T3, mouse CD137 expressed on the cell …; assay: immunofluorescence imaging binding assay on mouse CD137-expressing HEK293T cells; remark: listed apart in the source
# [14] = molecular target: T6, cynomolgus PD-L1 protein (Acro …); assay: ELISA, PD-L1 protein coated on the plate, OD 405; remark: listed apart in the source
# [15] = molecular target: T7, mouse PD-L1 protein (Acro Biosystems, …); assay: ELISA, PD-L1 protein coated on the plate, OD 405; remark: listed apart in the source
# [16] = molecular target: T5, human recombinant PD-L1 protein (Acro …); assay: ELISA, PD-L1 protein coated on the plate, OD 405; remark: listed apart in the source
binder,measurement,setting,value
"1923Ab6 (antibody, human IgG1, V domains shown, also called CD137 monospecific 1923Ab6) VH: EVHLLESGGGLVQPGGSLRLSCAASGFTFSSYAMGWVRQAPGKGLEWVSIIGGGGGSTYYADSVKGRFTISRDNSKNTLYLQMNSLRAEDTAVYYCAKVGYSGTYGGWFDPWGQGTLVTVSS VL: DIQMTQSPSSLSASIGDRVAITCRASQGISNYLAWFQQKPGKAPKSLIYAASSLQSGVPSKFSGSGSGTDFTLTISSLQPEDFATYYCQQYNSYPLTFGGGTKVEIK",EC50,[1],10.5 nM
same,EC50,[2],4.23 nM
same,EC50,[3],11 nM
same,binding result,[4],no binding
"1923Ab3 (antibody, V domains shown, also called PD-L1 monospecific 1923Ab3; anti-PD-L1 antibody 1923Ab3) VH: QVQLVQSGAEVKKPGASVKVSCKASGYTFTSYDINWVRQATGQGLEWMGWMNPNSGITGYAQRFQGRVTMTRDTSISTAYMELSSLRSEDTAVYYCARHRWGKGYLDLWGRGTLVTVSS VL: EIVMAQSPATLSLSPGERATLSCRASQSVSSSYLSWFQQKPGQAPRLLIYGASTRATGIPARFGGSGSGTDFTLTISSLQPEDFAVYYCQQDYNLPYTFGQGTKLEIK",EC50,[5],0.18 nM
same,Kd,[6],2.95 nM
same,koff,[6],0.0024 s⁻¹
same,kon,[6],814000 M⁻¹ s⁻¹
same,EC50,[7],0.07 nM
same,binding result,[8],no binding
same,EC50,[9],0.08 nM
same,"IC50, PD-1/PD-L1 blockade luciferase reporter assay",[10],0.43 nM
"1923Ab5 (antibody, human IgG1, V domains shown, also called CD137 monospecific 1923Ab5) VH: QVQLVESGGGVVQPGRSLRLSCAASGFTFSSYGMHWVRQAPGKGLEWVAVIWYDGSNEYYADSVKGRFTISRDNSKNTLYLQMNSLRAEDTAVYYCARERWQWLVLFDYWGQGTLVTVSS VL: EIVLTQSPATLSLSPGERATLSCRASQTITSSYLSWYQQKPGQAPRLLIYGASTRATGIPARFSGSGSGTDFTLTISSLQPEDFALYFCQQDFNLPYTFGQGTKLEIK",binding result,[11],no binding
same,EC50,[1],1.62 nM
same,EC50,[2],2.77 nM
same,EC50,[3],1.6 nM
"1923Ab4 (antibody, V domains shown, also called CD137 monospecific 1923Ab4; anti-CD137 1923Ab4) VH: QVQLVESGGGVVQPGRSLRLSCAASGFTFSNYGMHWVRQAPGKGLEWVAIIWYDGINKYYADSVKGRFTISRDNSKNTLYLQMNSLKAEDTAVYYCARDQDYDILTGYYKEDYFDFWGQGTLVTVSS VL: SYELTQPPSVSVSPGQTARITCSGDALPKKYAYWYQQKSGQAPVLVIYEDSKRPSGIPERFSGSSSGTMATLTISGAQVEDEADYYCYSTDSSGNRVFGGGTKLTVL",Kd,[12],7.18 nM
same,koff,[12],0.0219 s⁻¹
same,kon,[12],3.05e+06 M⁻¹ s⁻¹
same,binding result,[13],no binding
same,EC50,[1],0.29 nM
same,EC50,[2],0.22 nM
"1923Ab2 (antibody, V domains shown, Fully human variable regions from Trianni mice; Constant region as tested not clear: hybridoma-derived (mouse constant) or recombinant human IgG1 / IgG1 variant with human kappa; also called PD-L1 monospecific 1923Ab2; anti-PD-L1 antibody 1923Ab2) VH: QVQLVESGGGVVQPGRSLRLSCAASGFTFRNYGMHWVRQAPGKGLEWVAVIWFDGINKYYADSVKGRFTISRDNSENTLYLQMNSLRAEDTAVYYCARDRSSSPFDFWGQGTLVTVSS VL: EIVMTQSPATLSLSPGERATLSCRASQNFSNNYLSWYQQTPGQAPRLLIYGASTRATGIPARFSGSGSGTDFTLTISSLQPEDFAVYYCQQDYNLFTFGPGTKVDIK",EC50,[14],0.08 nM
same,binding result,[15],no binding
same,EC50,[16],0.09 nM
same,"IC50, PD-1/PD-L1 blockade luciferase reporter assay",[10],0.9 nM
